Consider five molecules from patent CN116514962A (THE AFFILIATED HOSPITAL OF GUANGZHOU MEDICAL UNIV GUANGZHOU …, dated 2023).

B1: 3B7抗体 (N蛋白特异性单克隆抗体3B7) (antibody, V domains shown)
VH: QMQLVQSGAEVKKPGASVRVSCKVSGYSLTELPMHWVRQAPGKGLEWVGSFDPQDAETTYAQRFQGRVAMTEDTSTDTAYMELSSLRSEDTAVYYCATPAPTIVGVVIYALHIWGQGTMVTVSS
VL: EIVLTQSPGTLSLSPGERATLSCRASQRVSDNSLAWYQQKPGQAPSLLIFAASIRAPGIPDRISGTGSGTDFTLTINRLEPEDFVVYFCLQYTTSPPLTFGGGTKLEIK
B2: N3抗体 (N蛋白特异性单克隆抗体N3) (antibody, V domains shown)
VH: QMQLVQSGAEVKRPGSSVKVSCKASGGTFSVYAISWVRQAPGQGLEWMGGIIPIFGTANYAQKFQGRVTLTADESTSTAYMELSSLSSEDTAVYYCARGGYCSGANCPKWGEWSHSYNYMDVWGKGTTVTVSS
VL: not shown
B3: N5抗体 (N蛋白特异性单克隆抗体N5) (antibody, V domains shown)
VH: QVQLVQSGAEVKKPGSSVKVSCKASGGTFSSYAIGWVRQAPGQGLEWMGAIIPIFGTTIFAQKFQGRVTITADESTTTAYMELSSLRSDDTAVYYCARGGGGVERGVILTRWFDPWGQGTLVTVSS
VL: QSVLTQPPSVSAAPGQKVTLSCSGSSSNIGNNHVSWYQQLPGTAPKLLIYDNNKRPSGIPDRFSGSKSGTSATLGITGLQTGDEADYYCGTWDNSLSAGVFGGGTKLTVV
B4: N31抗体 (N蛋白特异性单克隆抗体N31) (antibody, V domains shown)
VH: QMQLVQSGAEVKKPGSSVKVSCKASGGTFSSYGISWVRQAPGQGLEWMGGIIPILGTANYAQRFQGRIALTADESTSTAYMEVSSLRSEDTAVYYCARGMWSNPPGYCCSYMDVWGKGTTVTVSS
VL: EIVLTQSPATLSVSPGERVTLACRASQSLRSKLAWYQQKPGQAPRLLIYDASTRATGFPARFSGSGSGTEFTLTISSLQSEDFAVYYCQQYSNWPRTFGQGTKLEIK
B5: N83抗体 (N蛋白特异性单克隆抗体N83) (antibody, V domains shown)
VH: QVQLQESGPRLVKSSETLSLTCTVSGGSISSGSYYWNWIRQPAGKGLEWIGRVYISGVTSYNPSLKSRVTISLDISKNQFSLQLTSVTAADSAVYYCARGGMAVGAPLYYYFYGMDVWGQGTTVTVSS
VL: DVVMTQSPLSLPVTPGEPASISCRSSQSLLHSNGYNYVDWYLQKPGQSPQLMIYLGSNRASGVPDRFSGSGSGTHFTLKISRVEAEDVGVYYCMQALQTLSITFGQGTRLEIK

For one experiment, the target named is MERS病毒N蛋白 (MERS病毒 (MERS-CoV), UniProt K9N4V7 1-411). Description: ELISA. A general note: ELISA stands for enzyme-linked immunosorbent assay.
As to B1, the binding result is “no binding”.
On the same count and under the same terms, in the case of B2 it was “no binding”; in that of B3, “no binding”.
The same measure, in the same setting: in the case of B4 it was “no binding”; in that of B5, “no binding”.

For another experiment, the target named is T1, 人冠状病毒HKU1 N蛋白 (人冠状病毒HKU1 (HCoV-HKU1), UniProt Q5MQC6 1-441).
T1 sequence: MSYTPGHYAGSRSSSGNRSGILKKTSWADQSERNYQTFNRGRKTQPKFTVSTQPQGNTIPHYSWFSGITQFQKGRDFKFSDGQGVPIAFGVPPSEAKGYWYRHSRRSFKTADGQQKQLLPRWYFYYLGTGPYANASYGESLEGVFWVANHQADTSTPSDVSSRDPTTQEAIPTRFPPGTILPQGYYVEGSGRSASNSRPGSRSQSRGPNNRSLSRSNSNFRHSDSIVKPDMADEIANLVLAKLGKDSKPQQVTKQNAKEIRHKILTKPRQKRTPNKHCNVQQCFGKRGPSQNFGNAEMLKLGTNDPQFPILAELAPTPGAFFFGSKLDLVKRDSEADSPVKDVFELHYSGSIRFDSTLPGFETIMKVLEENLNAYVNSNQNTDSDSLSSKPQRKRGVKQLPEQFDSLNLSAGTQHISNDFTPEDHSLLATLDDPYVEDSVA
Description: ELISA.
Regarding B1, the binding result is reported as “no binding”.
Consider B2, for which the binding result is listed as “no binding”.
As for B3, the binding result is “no binding”.
Still for that read-out and setting: the entry for B4 is “no binding”; for B5 it is “no binding”.

For another experiment, the target named is SARS病毒N蛋白 (SARS病毒 (SARS-CoV), UniProt P59595 1-422). In words: ELISA.
In the case of B1, the binding result is “binds”.
Turning to B2, the binding result is listed as “binds”.
Still for that read-out and setting: in the case of B3 it was “binds”.
On the same count and under the same terms, the entry for B4 is “binds”; for B5 it is “binds”.

A further experiment deals with T2, 人冠状病毒OC43 N蛋白 (人冠状病毒OC43 (HCoV-OC43), UniProt P33469 1-448).
T2 sequence: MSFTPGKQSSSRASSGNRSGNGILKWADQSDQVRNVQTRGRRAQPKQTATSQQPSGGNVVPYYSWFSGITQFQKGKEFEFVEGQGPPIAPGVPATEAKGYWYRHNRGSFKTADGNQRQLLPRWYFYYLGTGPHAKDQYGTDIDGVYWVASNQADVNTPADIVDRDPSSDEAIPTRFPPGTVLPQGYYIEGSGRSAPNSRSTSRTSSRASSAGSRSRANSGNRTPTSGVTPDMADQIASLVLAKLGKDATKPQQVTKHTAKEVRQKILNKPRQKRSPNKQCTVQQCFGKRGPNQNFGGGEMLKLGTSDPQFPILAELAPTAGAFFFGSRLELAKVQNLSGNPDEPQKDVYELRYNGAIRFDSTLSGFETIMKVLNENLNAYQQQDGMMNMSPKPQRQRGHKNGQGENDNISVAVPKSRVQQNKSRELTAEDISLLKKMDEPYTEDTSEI
In words: ELISA.
Take B1: the binding result is on record as “no binding”.
The same measure, in the same setting: in the case of B2 it was “no binding”; in that of B3, “no binding”.
On the same count and under the same terms, the entry for B4 is “no binding”.
On the same count and under the same terms, the entry for B5 is “no binding”.

Another experiment deals with 新型冠状病毒(SARS-CoV-2)N蛋白 (SARS-CoV-2, UniProt P0DTC9 1-419).
Test: not given
As a reminder, the Kd is the equilibrium constant for the complex coming apart. Read a low Kd as a tighter complex. The molecule B1 displayed a Kd of 1.94 nM.
The same measure, in the same setting: the figure for B3 is less than 0.001 nM.
The same measure, in the same setting: in the case of B4 it was less than 0.001 nM; in that of B5, 1.76 nM.
